Measured values published in the supplement of paper PMC9112550, “Optimization of the antimicrobial peptide Bac7 by deep mutational scanning” (BMC Biology, 2022).

tested on: Escherichia coli TOP10; experiment: shrunken log2 fold change of peptide-encoding DNA abundance (4.5 h post-induction vs induction); higher = less antimicrobial activity (less host growth inhibition); conditions: time post-induction: 4.5 h; library: site-saturation at positions 5, 18, 19, 20
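Note: peptides expressed intracellularly from a pBAD plasmid library in pooled LB shake-flask culture, induced with 0.3% L-arabinose, DNA abundance read by NGS, three biological replicates, DESeq2 with apeglm shrinkage.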

Sequence | shrunken log2 fold change
RRIRMRPPRLPRPRPRPYDPPRP | -0.328
RRIRFRPPRLPRPRPRPQLEPRP | 0.118
RRIRFRPPRLPRPRPRPQNAPRP | 0.0534
RRIRQRPPRLPRPRPRPTGFPRP | 0.051
RRIRKRPPRLPRPRPRPHICPRP | 0.00561
RRIRNRPPRLPRPRPRPKYHPRP | -0.442
RRIRRRPPRLPRPRPRPMVQPRP | -0.00615
RRIRYRPPRLPRPRPRPNIEPRP | -0.801
RRIRWRPPRLPRPRPRPKNSPRP | 0.318
RRIRMRPPRLPRPRPRPDGMPRP | 1.73
RRIRARPPRLPRPRPRPWDRPRP | 0.0339
RRIRLRPPRLPRPRPRPMYPPRP | -0.0826
RRIRSRPPRLPRPRPRPRFLPRP | 0.159
RRIRIRPPRLPRPRPRPPNHPRP | -0.475
RRIRPRPPRLPRPRPRPNTMPRP | -0.492
RRIRIRPPRLPRPRPRPEKWPRP | -0.0117
RRIRTRPPRLPRPRPRPRANPRP | 0.177
RRIRTRPPRLPRPRPRPCQHPRP | 0.0626
RRIRNRPPRLPRPRPRPPMKPRP | -0.216
RRIRQRPPRLPRPRPRPDRHPRP | -0.182
RRIRHRPPRLPRPRPRPWKAPRP | 0.00938
RRIRYRPPRLPRPRPRPSFAPRP | -0.332
RRIRPRPPRLPRPRPRPVGHPRP | 0.0338
RRIRRRPPRLPRPRPRPYLGPRP | -0.276
RRIRNRPPRLPRPRPRPHCFPRP | -0.641

Sequence | shrunken log2 fold change
RRIRVRPPRLPRPRPRPCTHPRP | 0.0145
RRIRSRPPRLPRPRPRPDIRPRP | -0.0108
RRIRARPPRLPRPRPRPAFFPRP | 0.479
RRIRVRPPRLPRPRPRPIALPRP | -0.238
RRIRVRPPRLPRPRPRPMGIPRP | 0.134
RRIRLRPPRLPRPRPRPMPTPRP | 0.449
RRIRLRPPRLPRPRPRPTWRPRP | 0.337
RRIRGRPPRLPRPRPRPDKTPRP | 0.104
RRIRPRPPRLPRPRPRPHINPRP | -1.16
RRIRRRPPRLPRPRPRPGTNPRP | 0.0926
RRIRYRPPRLPRPRPRPLNMPRP | -1.33
RRIRKRPPRLPRPRPRPAICPRP | 0.0922
RRIRVRPPRLPRPRPRPCPEPRP | -0.189
RRIRSRPPRLPRPRPRPSQIPRP | -0.0773
RRIRMRPPRLPRPRPRPIKVPRP | -0.149
RRIRIRPPRLPRPRPRPCGWPRP | 0.0831
RRIRCRPPRLPRPRPRPGDRPRP | 0.0429
RRIRWRPPRLPRPRPRPWWMPRP | 0.388
RRIRHRPPRLPRPRPRPEKTPRP | 0.115
RRIRFRPPRLPRPRPRPIMIPRP | -0.113
RRIRNRPPRLPRPRPRPEENPRP | -0.00776
RRIRDRPPRLPRPRPRPFPNPRP | -0.503
RRIRMRPPRLPRPRPRPETDPRP | 1.77
RRIRDRPPRLPRPRPRPQRRPRP | 0.255
RRIRSRPPRLPRPRPRPDYCPRP | -0.284

Sequence | shrunken log2 fold change
RRIRGRPPRLPRPRPRPDKQPRP | 0.0252
RRIRMRPPRLPRPRPRPPKLPRP | 0.343
RRIRIRPPRLPRPRPRPYPCPRP | -0.028
RRIRQRPPRLPRPRPRPMMEPRP | 0.00908
RRIRCRPPRLPRPRPRPCNFPRP | -0.0198
RRIRWRPPRLPRPRPRPRQKPRP | 0.0761
RRIRPRPPRLPRPRPRPPHIPRP | 0.806
RRIRHRPPRLPRPRPRPGLIPRP | -0.234
RRIRYRPPRLPRPRPRPMDLPRP | -0.0912
RRIRPRPPRLPRPRPRPFIDPRP | -0.304
RRIRIRPPRLPRPRPRPSCQPRP | -0.0446
RRIRDRPPRLPRPRPRPKEFPRP | 0.0479
RRIRVRPPRLPRPRPRPQHEPRP | -0.245
RRIRKRPPRLPRPRPRPFANPRP | -0.0377
RRIRRRPPRLPRPRPRPYLMPRP | -0.146
RRIRWRPPRLPRPRPRPWVLPRP | 0.287
RRIRWRPPRLPRPRPRPLYGPRP | -0.369
RRIRHRPPRLPRPRPRPIKQPRP | -0.0565
RRIRYRPPRLPRPRPRPSLFPRP | -0.657
RRIRERPPRLPRPRPRPYPRPRP | -0.00133
RRIRQRPPRLPRPRPRPIKYPRP | 0.00234
RRIRCRPPRLPRPRPRPKPQPRP | 0.324
RRIRPRPPRLPRPRPRPDGHPRP | 0.0433
RRIRLRPPRLPRPRPRPNLGPRP | -0.0507
RRIRNRPPRLPRPRPRPPVEPRP | 0.272

Sequence | shrunken log2 fold change
RRIRIRPPRLPRPRPRPKMIPRP | -0.379
RRIRERPPRLPRPRPRPWDCPRP | -0.0136
RRIRFRPPRLPRPRPRPMRNPRP | 0.92
RRIRVRPPRLPRPRPRPVRIPRP | 0.337
RRIRFRPPRLPRPRPRPSFCPRP | -0.373
RRIRHRPPRLPRPRPRPTEYPRP | -0.301
RRIRRRPPRLPRPRPRPGPWPRP | 0.523
RRIRSRPPRLPRPRPRPKGDPRP | -0.011
RRIRMRPPRLPRPRPRPNTGPRP | 0.151
RRIRNRPPRLPRPRPRPTGVPRP | 0.147
RRIRCRPPRLPRPRPRPPGDPRP | 0.346
RRIRMRPPRLPRPRPRPRPKPRP | 1.07
RRIRTRPPRLPRPRPRPRWMPRP | 0.0454
RRIRDRPPRLPRPRPRPPLQPRP | 0.414
RRIRCRPPRLPRPRPRPCYCPRP | -0.399
RRIRGRPPRLPRPRPRPNEPPRP | 0.154
RRIRHRPPRLPRPRPRPCETPRP | -0.332
RRIRTRPPRLPRPRPRPDRWPRP | 0.0353
RRIRDRPPRLPRPRPRPGASPRP | 1.08
RRIRTRPPRLPRPRPRPVFSPRP | -0.648
RRIRTRPPRLPRPRPRPFWRPRP | 0.112
RRIRSRPPRLPRPRPRPREHPRP | 0.152
RRIRGRPPRLPRPRPRPHHSPRP | -0.196
RRIRYRPPRLPRPRPRPRRFPRP | 0.256
RRIRNRPPRLPRPRPRPTNQPRP | -0.281

Sequence | shrunken log2 fold change
RRIRSRPPRLPRPRPRPICPPRP | -0.055
RRIRPRPPRLPRPRPRPPRGPRP | 0.811
RRIRYRPPRLPRPRPRPPHHPRP | -0.668
RRIRNRPPRLPRPRPRPANRPRP | -0.029
RRIRIRPPRLPRPRPRPDIGPRP | -0.251
RRIRSRPPRLPRPRPRPQECPRP | -0.0587
RRIRARPPRLPRPRPRPEDDPRP | 0.306
RRIRMRPPRLPRPRPRPLLHPRP | 0.228
RRIRFRPPRLPRPRPRPTDVPRP | 0.0385
RRIRYRPPRLPRPRPRPILHPRP | -0.141
RRIRGRPPRLPRPRPRPPREPRP | 1.3
RRIRRRPPRLPRPRPRPLGAPRP | 0.468
RRIRDRPPRLPRPRPRPWTKPRP | 0.0467
RRIRIRPPRLPRPRPRPYNTPRP | -0.725
RRIRLRPPRLPRPRPRPHRFPRP | 0.0608
RRIRPRPPRLPRPRPRPCNYPRP | -0.152
RRIRPRPPRLPRPRPRPFPWPRP | -0.0429
RRIRCRPPRLPRPRPRPVSQPRP | 0.201
RRIRSRPPRLPRPRPRPFSLPRP | -0.506
RRIRVRPPRLPRPRPRPPAKPRP | 0.603
RRIRRRPPRLPRPRPRPHKNPRP | 0.126
RRIRKRPPRLPRPRPRPESVPRP | 0.234
RRIRERPPRLPRPRPRPMLDPRP | 0.0349
RRIRVRPPRLPRPRPRPVGCPRP | 0.417
RRIRTRPPRLPRPRPRPFKWPRP | -0.121

Sequence | shrunken log2 fold change
RRIRERPPRLPRPRPRPWDRPRP | -0.146
RRIRIRPPRLPRPRPRPSNPPRP | -0.74
RRIRDRPPRLPRPRPRPMRKPRP | 0.763
RRIRNRPPRLPRPRPRPERSPRP | 0.129
RRIRNRPPRLPRPRPRPWTCPRP | 0.0493
RRIRKRPPRLPRPRPRPNENPRP | 0.304
RRIRNRPPRLPRPRPRPYVTPRP | -0.553
RRIRRRPPRLPRPRPRPRNLPRP | -0.0397
RRIRWRPPRLPRPRPRPVGYPRP | 0.0334
RRIRARPPRLPRPRPRPFQHPRP | -0.162
RRIRNRPPRLPRPRPRPKMAPRP | -0.00757
RRIRIRPPRLPRPRPRPMRLPRP | 0.0554
RRIRARPPRLPRPRPRPATWPRP | 0.37
RRIRERPPRLPRPRPRPTWVPRP | 0.138
RRIRRRPPRLPRPRPRPNCEPRP | 0.227
RRIRMRPPRLPRPRPRPWAPPRP | 0.214
RRIRSRPPRLPRPRPRPFAIPRP | -0.638
RRIRGRPPRLPRPRPRPYMKPRP | -0.493
RRIRCRPPRLPRPRPRPRVVPRP | 0.247
RRIRVRPPRLPRPRPRPTSDPRP | 0.431
RRIRFRPPRLPRPRPRPEYTPRP | -0.0548
RRIRMRPPRLPRPRPRPKKAPRP | 0.0459
RRIRTRPPRLPRPRPRPKAMPRP | 0.0836
RRIRQRPPRLPRPRPRPMWFPRP | 0.153
RRIRHRPPRLPRPRPRPQNDPRP | 0.0173
